Molecular target: alpha-PrP (prion protein, alpha form) (UniProt P04156)
Assay: SPR
Conditions: PBS pH 7.0, room temperature

Sequence: GTTCGGCACTTGGGCCCTTTTCTGTGTCTTTCTGTGCCCTTAGATAGTATGTGCAATCA [CaAp-3]
- Kd: 116 nM

— patent US20100021899
